Assays:
[1] = target: TdT (murine terminal deoxynucleotidyl transferase, single cysteine at position 182, conjugated to dNTP via amino acid ester linker) (Mus musculus) (UniProt P09838); conditions: hydroxymethyl scar on 3'-terminal T base; dTTP ester-linker conjugate; same yield as natural unscarred primer
[2] = target: TdT (murine terminal deoxynucleotidyl transferase, single cysteine at position 182, conjugated to dNTP via amino acid ester linker) (Mus musculus) (UniProt P09838); experiment: EMSA; conditions: Linker 1 or 2 dTTP conjugate, 60 s; covalent primer-extension complex on SDS-PAGE gel shift

Sequence of TdT (murine terminal deoxynucleotidyl transferase, single cysteine at position 182, conjugated to dNTP via amino acid ester linker) (Mus musculus) (P09838 other isoform, or with tags, fused parts or gaps): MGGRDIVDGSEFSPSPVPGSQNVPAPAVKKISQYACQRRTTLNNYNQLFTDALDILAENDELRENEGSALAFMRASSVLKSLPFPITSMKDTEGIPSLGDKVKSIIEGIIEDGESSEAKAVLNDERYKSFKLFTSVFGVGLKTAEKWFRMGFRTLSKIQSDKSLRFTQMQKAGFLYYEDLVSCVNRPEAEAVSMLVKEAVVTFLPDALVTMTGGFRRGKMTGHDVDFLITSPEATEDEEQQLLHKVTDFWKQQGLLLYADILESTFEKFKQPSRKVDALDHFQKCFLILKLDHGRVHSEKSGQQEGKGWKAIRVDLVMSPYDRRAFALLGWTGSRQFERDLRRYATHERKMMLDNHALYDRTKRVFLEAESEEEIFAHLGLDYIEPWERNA

Row | Substance | activity (% extension in 1 s) [1] | activity [2]
1 | primer with 3'-terminal hydroxymethyl-scarred dT | 35 | 
2 | ssDNA primer |  | > 95 % extension

— patent US20260132223
